Here are results for one protein from publication PMC4141209 (FEBS Open Bio, 2014).

This data set concerns the molecule itself. As to the kind of experiment: SEC.

B1: TlLhpH (trans-3-hydroxy-L-proline dehydratase from Thermococcus litoralis DSM 5473) (enzyme, UniProt H3ZMH8 1-348, looked up)
chain: MFKKLENLEKWEPPKDWMVIKTLDTHTAGEPLRIILSGFPEIPGKTILEKRRYLMENLDHLRKALMWEPRGHADMYGAIITEPVSEEADFGVIFMHNEGYSTMCGHATIALGKVAVECGLVEAKEPITEIKMDSPAGLIKIYVKVRDGKVEKVYFHNVPSFVLFKDETINVPGIGEVKYDLAYGGAFYAFVNAEEIGLKCTPEYYRQLIDVGMKIKRAIMSEKEIRHPFEEDLSFLYGTIFIGEPEDENSHSRHVCIFADGEVDRSPTGTGVSARLAILYEKGEIDIGEEITIESIIGTKFTGKVVEETRYGLYRAIIPEVGGNAYIVAKNTFLIDPQDPLKYGFFLR
Regarding B1, the “stoichiometry N” value turned out to be 2.
